Results taken from article PMC9101108, “Shifting CCR7 towards Its Monomeric Form Augments CCL19 Binding and Uptake” (Cells, 2022).

Legend:
Conditions in all cases: one partner purified
[1] = target: T1, human CCR7 A315G fused to YPet (human, UniProt P32248 25-378, A315G); assay: flow cytometry on cells; HeLa cells transiently expressing YPet-tagged CCR7 variants incubated at 4 °C for indicated times with 25 nM CCL19-S6^649P1, washed, MFI (chemokine binding)
T1 construct: chemokine receptor CCR7, human (hCCR7), point mutant A315G; also called hCCR7-YPet A315G; source: HeLa, transiently transfected (pcDNA3 hCCR7-YPet A315G), on cells; not shown: YPet, C-terminal, kept
T1 sequence (looked up): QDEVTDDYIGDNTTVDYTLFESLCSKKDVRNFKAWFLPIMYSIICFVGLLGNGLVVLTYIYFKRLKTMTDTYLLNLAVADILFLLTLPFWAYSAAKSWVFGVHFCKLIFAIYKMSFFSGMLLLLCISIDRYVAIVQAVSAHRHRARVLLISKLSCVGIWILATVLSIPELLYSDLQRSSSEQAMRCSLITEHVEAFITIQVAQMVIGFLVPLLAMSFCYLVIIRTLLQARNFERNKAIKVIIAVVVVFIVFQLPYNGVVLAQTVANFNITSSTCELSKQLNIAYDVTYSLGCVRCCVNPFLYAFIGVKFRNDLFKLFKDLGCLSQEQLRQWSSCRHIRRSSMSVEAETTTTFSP

[2] = target: T2, human CCR7 L325S fused to YPet (human, UniProt P32248 25-378, L325S); assay: as above
T2 construct: chemokine receptor CCR7, human (hCCR7), point mutant L325S; also called hCCR7-YPet L325S; source: HeLa, transiently transfected (pcDNA3 hCCR7-YPet L325S), on cells; not shown: YPet, C-terminal, kept
T2 sequence (looked up): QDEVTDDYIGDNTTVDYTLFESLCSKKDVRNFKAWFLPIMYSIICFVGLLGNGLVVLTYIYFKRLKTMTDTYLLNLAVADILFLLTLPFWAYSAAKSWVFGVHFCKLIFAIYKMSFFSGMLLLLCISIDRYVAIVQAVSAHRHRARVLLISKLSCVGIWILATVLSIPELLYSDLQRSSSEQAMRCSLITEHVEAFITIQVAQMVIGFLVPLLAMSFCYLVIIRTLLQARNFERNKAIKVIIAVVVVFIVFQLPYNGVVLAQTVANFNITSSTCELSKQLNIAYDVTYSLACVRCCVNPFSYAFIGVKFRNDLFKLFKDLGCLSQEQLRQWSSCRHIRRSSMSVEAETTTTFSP

[3] = target: T3, human CCR7 SNP V317I fused to YPet (human, UniProt P32248 25-378, V317I); assay: flow cytometry on cells; competition: HeLa cells transiently expressing YPet-tagged CCR7 variants, 37 °C, 30 min, 25 nM CCL19-S6^649P1 with graded concentrations of native unlabelled hCCL19; MFI (binding and uptake)
T3 construct: chemokine receptor CCR7, human (hCCR7), naturally occurring SNP V317I; also called CCR7 V317I; hCCR7-YPet V317I; source: HeLa, transiently transfected (pcDNA3 hCCR7-YPet V317I), on cells; not shown: YPet, C-terminal, kept
T3 sequence (looked up): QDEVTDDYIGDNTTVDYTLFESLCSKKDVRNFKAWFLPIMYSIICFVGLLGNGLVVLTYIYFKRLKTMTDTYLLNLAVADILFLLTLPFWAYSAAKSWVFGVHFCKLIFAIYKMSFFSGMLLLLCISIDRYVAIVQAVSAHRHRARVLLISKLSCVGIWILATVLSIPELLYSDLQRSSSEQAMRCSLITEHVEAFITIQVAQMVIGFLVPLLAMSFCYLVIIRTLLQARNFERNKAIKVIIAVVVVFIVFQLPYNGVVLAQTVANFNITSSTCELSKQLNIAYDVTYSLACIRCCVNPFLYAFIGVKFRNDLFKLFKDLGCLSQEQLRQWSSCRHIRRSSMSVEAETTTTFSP

[4] = target: T1, human CCR7 A315G fused to YPet; assay: as above
[5] = target: T2, human CCR7 L325S fused to YPet; assay: as above
[6] = target: T4, human CCR7 wild-type fused to YPet (hCCR7-YPet) (human, UniProt P32248 25-378); assay: as above
T4 construct: chemokine receptor CCR7, human (hCCR7); also called CCR7 WT; wild-type CCR7; source: HeLa, transiently transfected (pcDNA3 hCCR7-YPet), on cells; not shown: YPet, C-terminal, kept
T4 sequence (looked up): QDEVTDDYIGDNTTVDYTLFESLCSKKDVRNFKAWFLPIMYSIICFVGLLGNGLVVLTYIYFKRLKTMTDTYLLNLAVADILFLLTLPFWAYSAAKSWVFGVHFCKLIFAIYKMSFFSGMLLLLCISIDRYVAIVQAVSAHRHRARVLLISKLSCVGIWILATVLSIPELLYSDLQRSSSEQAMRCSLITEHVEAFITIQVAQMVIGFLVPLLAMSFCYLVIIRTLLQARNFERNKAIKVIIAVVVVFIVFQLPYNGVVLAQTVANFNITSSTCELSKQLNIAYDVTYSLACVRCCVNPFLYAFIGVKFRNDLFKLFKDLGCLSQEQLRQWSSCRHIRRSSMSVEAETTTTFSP

B1: human CCL19-S6 site-specifically labelled with Dy649P1 (hCCL19-S6^649P1) (ligand, UniProt Q99731 22-98, looked up)
chain: GTNDAEDCCLSVTQKPIPGYIVRNFHYLLIKDGCRVPAVVFTTLRGRQLCAPPDQPWVERIIQRLQRTSAKMKRRSS
modifications: Dy649P1 covalently and site-specifically attached (CoA-Dy649P1, SFP synthase)
In the case of B1, the “fold fluorescence of bound CCL19-S6^649P1 against wild-type CCR7” value [1] is reported as about 2 fold and the “fold fluorescence of bound CCL19-S6^649P1 against wild-type CCR7” value [2] is reported as about 2 fold.

B2: native human CCL19 (hCCL19), unlabelled (ligand, UniProt Q99731 22-98, looked up)
chain: GTNDAEDCCLSVTQKPIPGYIVRNFHYLLIKDGCRVPAVVFTTLRGRQLCAPPDQPWVERIIQRLQRTSAKMKRRSS
For B2, the Kd [3] was about 31 nM, the Kd [4] was about 10 nM and the Kd [5] was about 7 nM. The Kd [6] was about 29 nM.
